Measurements published in patent US20170210799A1 (Janssen / Centocor, published 2017).

B1: RCDB13 (bispecific antibody, human IgG4 S228P, kappa, lambda, F234A L235A)
heavy 1: not shown
light 1: not shown
heavy 2: EVQLVESGGGLVQPGGSLRLSCAASGFTFNTYAMNWVRQAPGKGLEWVARIRSKYNNYATYYAASVKGRFTISRDDSKNSLYLQMNSLKTEDTAVYYCARHGNFGNSYVSWFAYWGQGTLVTVSSASTKGPSVFPLAPCSRSTSESTAALGCLVKDYFPEPVTVSWNSGALTSGVHTFPAVLQSSGLYSLSSVVTVPSSSLGTKTYTCNVDHKPSNTKVDKRVESKYGPPCPPCPAPEAAGGPSVFLFPPKPKDTLMISRTPEVTCVVVDVSQEDPEVQFNWYVDGVEVHNAKTKPREEQFNSTYRVVSVLTVLHQDWLNGKEYKCKVSNKGLPSSIEKTISKAKGQPREPQVYTLPPSQEEMTKNQVSLTCLVKGFYPSDIAVEWESNGQPENNYKTTPPVLDSDGSFLLYSKLTVDKSRWQEGNVFSCSVMHEALHNHYTQKSLSLSLGK
light 2: QTVVTQEPSLTVSPGGTVTLTCRSSTGAVTTSNYANWVQQKPGQAPRGLIGGTNKRAPGTPARFSGSLLGGKAALTLSGVQPEDEAEYYCALWYSNLWVFGGGTKLTVLGQPKAAPSVTLFPPSSEELQANKATLVCLISDFYPGAVTVAWKADSSPVKAGVETTTPSKQSNNKYAASSYLSLTPEQWKSHRSYSCQVTHEGSTVEKTVAPTECS
notes: DuoBody IgG4 PAA, ROR1 arm + CD3B219 arm; also called RR1B78 × CD3B219
B2: RCDB11 (bispecific antibody, human IgG4 S228P, kappa, lambda, F234A L235A)
heavy 1: not shown
light 1: not shown
heavy 2: B1 heavy 2
light 2: B1 light 2
notes: DuoBody IgG4 PAA, ROR1 arm + CD3B219 arm; also called RR1B76 × CD3B219
B3: RCDB5 (bispecific antibody, human IgG4 S228P, kappa, lambda, F234A L235A)
heavy 1: not shown
light 1: not shown
heavy 2: B1 heavy 2
light 2: B1 light 2
notes: DuoBody IgG4 PAA, ROR1 arm + CD3B219 arm
B4: RCDB4 (bispecific antibody, human IgG4 S228P, kappa, lambda, F234A L235A)
heavy 1: not shown
light 1: not shown
heavy 2: B1 heavy 2
light 2: B1 light 2
notes: DuoBody IgG4 PAA, ROR1 arm + CD3B219 arm; also called RR1B66 × CD3B219
B5: RCDB17 (bispecific antibody, human IgG4 S228P, kappa, lambda, F234A L235A)
heavy 1: not shown
light 1: not shown
heavy 2: B1 heavy 2
light 2: B1 light 2
notes: DuoBody IgG4 PAA, ROR1 arm + CD3B219 arm; also called RR1B85 × CD3B219
B6: RCDB9 (bispecific antibody, human IgG4 S228P, kappa, lambda, F234A L235A)
heavy 1: not shown
light 1: not shown
heavy 2: B1 heavy 2
light 2: B1 light 2
notes: DuoBody IgG4 PAA, ROR1 arm + CD3B219 arm; also called RR1B72 × CD3B219
B7: RCDB3 (bispecific antibody, human IgG4 S228P, kappa, lambda, F234A L235A)
heavy 1: not shown
light 1: not shown
heavy 2: B1 heavy 2
light 2: B1 light 2
notes: DuoBody IgG4 PAA, ROR1 arm + CD3B219 arm; also called RR1B65 × CD3B219
B8: RCDB7 (bispecific antibody, human IgG4 S228P, kappa, lambda, F234A L235A)
heavy 1: not shown
light 1: not shown
heavy 2: B1 heavy 2
light 2: B1 light 2
notes: DuoBody IgG4 PAA, ROR1 arm + CD3B219 arm; also called RR1B70 × CD3B219
B9: RCDB15 (bispecific antibody, human IgG4 S228P, kappa, lambda, F234A L235A)
heavy 1: not shown
light 1: not shown
heavy 2: B1 heavy 2
light 2: B1 light 2
notes: DuoBody IgG4 PAA, ROR1 arm + CD3B219 arm; also called RR1B83 × CD3B219
B10: RCDB16 (bispecific antibody, human IgG4 S228P, kappa, lambda, F234A L235A)
heavy 1: not shown
light 1: not shown
heavy 2: B1 heavy 2
light 2: B1 light 2
notes: DuoBody IgG4 PAA, ROR1 arm + CD3B219 arm; also called RR1B84 × CD3B219
B11: RCDB6 (bispecific antibody, human IgG4 S228P, kappa, lambda, F234A L235A)
heavy 1: not shown
light 1: not shown
heavy 2: B1 heavy 2
light 2: B1 light 2
notes: as for B3
B12: RCDB8 (bispecific antibody, human IgG4 S228P, kappa, lambda, F234A L235A)
heavy 1: not shown
light 1: DIQMTQSPSSLSASVGDRVTITCRASQSIDRHLNWYQQKPGKAPKLLIYKASSLQSGVPSRFSGSGSGTDFTLTISSLQPEDFATYYCQQPHTFPLTFGQGTKVEIKRTVAAPSVFIFPPSDEQLKSGTASVVCLLNNFYPREAKVQWKVDNALQSGNSQESVTEQDSKDSTYSLSSTLTLSKADYEKHKVYACEVTHQGLSSPVTKSFNRGEC
heavy 2: B1 heavy 2
light 2: B1 light 2
notes: DuoBody IgG4 PAA, ROR1 arm + CD3B219 arm; also called RR1B71 × CD3B219
B13: RCDB18 (bispecific antibody, human IgG4 S228P, kappa, lambda, F234A L235A)
heavy 1: not shown
light 1: not shown
heavy 2: B1 heavy 2
light 2: B1 light 2
notes: DuoBody IgG4 PAA, ROR1 arm + CD3B219 arm; also called RR1B86 × CD3B219
B14: RCDB19 (bispecific antibody, human IgG4 S228P, kappa, lambda, F234A L235A)
heavy 1: not shown
light 1: not shown
heavy 2: B1 heavy 2
light 2: B1 light 2
notes: DuoBody IgG4 PAA, ROR1 arm + CD3B219 arm; also called RR1B88 × CD3B219
B15: RCDB12 (bispecific antibody, human IgG4 S228P, kappa, lambda, F234A L235A)
heavy 1: not shown
light 1: not shown
heavy 2: B1 heavy 2
light 2: B1 light 2
notes: DuoBody IgG4 PAA, ROR1 arm + CD3B219 arm; also called RR1B77 × CD3B219
B16: RCDB14 (bispecific antibody, human IgG4 S228P, kappa, lambda, F234A L235A)
heavy 1: not shown
light 1: not shown
heavy 2: B1 heavy 2
light 2: B1 light 2
notes: DuoBody IgG4 PAA, ROR1 arm + CD3B219 arm; also called RR1B82 × CD3B219
B17: RR1B78 (antibody, human IgG4 S228P, kappa, F234A L235A, V domains shown)
VH: EVQLVQSGAEVKKPGESLKISCKGSGYSFTSYWIGWVRQMPGKGLEWMGIIYPGDSDTRYSPSFQGQVTISADKSISTAYLQWSSLKASDTAMYYCARDVGRWAPGGFLDYWGQGTLVTVSS
VL: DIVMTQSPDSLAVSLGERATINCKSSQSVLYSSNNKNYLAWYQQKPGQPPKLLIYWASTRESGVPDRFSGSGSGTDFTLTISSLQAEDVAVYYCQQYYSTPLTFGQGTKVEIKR
notes: huIgG4 PAA/kappa

Each binder was assayed against T1, human ROR1 (Receptor Tyrosine Kinase-Like Orphan Receptor 1) on cells (human, UniProt Q01973 30-937) (assay: cell-based or functional assay).

**Q.** Which “Killing EC50” value does the source give for B1 here?
**A.** 0.539 nM

**Q.** For B2, which “Killing EC50” value is on record?
**A.** 0.247 nM

**Q.** With B3 as the binder, how does the “Killing EC50” value read?
**A.** 0.454 nM

**Q.** Which “Killing EC50” value does the source give for B4 here?
**A.** 0.677 nM

**Q.** For B5, which “Killing EC50” value is on record?
**A.** 5.17 nM

**Q.** B6 was tested. Which “Killing EC50” value did it give?
**A.** 3.21 nM

**Q.** B7 was tested. Which “Killing EC50” value did it give?
**A.** 2.48 nM

**Q.** Which “Killing EC50” value does the source give for B8 here?
**A.** 16.9 nM

**Q.** For B9, which “Killing EC50” value is on record?
**A.** 1.28 nM

**Q.** For B10, which “Killing EC50” value is on record?
**A.** 2.91 nM

**Q.** Which “Killing EC50” value does the source give for B11 here?
**A.** 0.437 nM

The binders below were run against T1, human ROR1 (Receptor Tyrosine …) (assay: flow cytometry, HCC827 cells).

**Q.** Which EC50 does the source give for B1 here?
**A.** 1.64 nM

**Q.** Which EC50 does the source give for B2 here?
**A.** 2.36 nM

**Q.** How did the EC50 turn out when B3 was run?
**A.** 3.74 nM

**Q.** With B4 as the binder, how does the EC50 read?
**A.** 9.14 nM

**Q.** How did the EC50 turn out when B12 was run?
**A.** 10.6 nM

**Q.** How did the EC50 turn out when B5 was run?
**A.** 4.72 nM

**Q.** Which EC50 does the source give for B6 here?
**A.** 16.9 nM

**Q.** How did the EC50 turn out when B7 was run?
**A.** 3.77 nM

**Q.** For B13, which EC50 is on record?
**A.** 5.07 nM

**Q.** How did the EC50 turn out when B14 was run?
**A.** 16.2 nM

**Q.** For B8, which EC50 is on record?
**A.** 1 nM

**Q.** Which EC50 does the source give for B15 here?
**A.** 1.25 nM

**Q.** B9 was tested. Which EC50 did it give?
**A.** 6.34 nM

**Q.** With B10 as the binder, how does the EC50 read?
**A.** 10.4 nM

**Q.** How did the EC50 turn out when B16 was run?
**A.** 6.21 nM

**Q.** With B11 as the binder, how does the EC50 read?
**A.** 6.25 nM

What follows are binders tested against T1, human ROR1 (Receptor Tyrosine …) (assay: MSD-CAT, HEK293 cells expressing human ROR1).

**Q.** Which Kd does the source give for B1 here?
**A.** 0.254 nM

**Q.** B2 was tested. Which Kd did it give?
**A.** 0.382 nM

**Q.** B3 was tested. Which Kd did it give?
**A.** 0.331 nM

**Q.** How did the Kd turn out when B6 was run?
**A.** 2.27 nM

**Q.** How did the Kd turn out when B15 was run?
**A.** 0.236 nM

**Q.** With B11 as the binder, how does the Kd read?
**A.** 0.648 nM

What follows are binders tested against T2, human ROR1 (Receptor Tyrosine Kinase-Like Orphan Receptor 1) on cells (human, UniProt Q01973 30-937) (assay: detection of control ROR1+ cell lines spiked into fixed whole blood).
T2 construct: whole, on cells; endogenous on SKMES-1, MDA-MB231, H358, HCC827 and MCL lines, or on HEK293 cells transfected with human ROR1 (pDR25226); the cell line is named under assay; also called cell-surface ROR1; hu ROR1

**Q.** Does B17 bind?
**A.** binds
